Each block holds one binder with its values, some of them ahead of it.
Legend:
[1] = target: T1, recombinant human GPC-1 produced from NS0 cells (human, UniProt P35052 24-530); test: Western blot, three-antibody detection
T1 construct: also called GPC-1 NS0; recombinant NS0-produced GPC-1
T1 sequence (looked up): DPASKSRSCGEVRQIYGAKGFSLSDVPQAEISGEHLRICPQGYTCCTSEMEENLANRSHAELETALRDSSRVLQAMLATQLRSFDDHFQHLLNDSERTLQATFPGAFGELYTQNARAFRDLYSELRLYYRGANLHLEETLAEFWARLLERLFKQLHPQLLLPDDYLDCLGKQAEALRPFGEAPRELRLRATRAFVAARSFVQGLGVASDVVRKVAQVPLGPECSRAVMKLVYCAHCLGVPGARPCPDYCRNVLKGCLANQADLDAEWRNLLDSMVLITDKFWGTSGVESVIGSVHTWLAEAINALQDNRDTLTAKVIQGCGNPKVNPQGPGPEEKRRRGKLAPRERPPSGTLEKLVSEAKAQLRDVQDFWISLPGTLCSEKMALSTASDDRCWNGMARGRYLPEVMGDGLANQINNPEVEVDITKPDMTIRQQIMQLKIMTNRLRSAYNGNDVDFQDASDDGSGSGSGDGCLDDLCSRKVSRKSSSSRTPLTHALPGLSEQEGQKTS
Description: As a control, murine MIL-38 was detected by goat anti-mouse secondary antibody followed by a sheep-anti-goat HRP antibody. […] The complex was detected using a sheep-anti-goat HRP antibody. […] The complex was detected using a sheep-anti-mouse HRP antibody.
A control western blot using a three antibody detection method was also performed with murine MIL-38. (FIG. 9C).

[2] = target: T2, MIL-38 antigen (GPC-1) as present in DU-145 and other cell lines (UniProt P35052 24-530); test: immunofluorescence assay on DU-145 cells (FIG. 8F)
T2 construct: whole, on cells; In IFA it stood on acetone-fixed cells; in Western blots it stood in membrane protein (MPEK) extracts of the cells; also called GPC-1 antigen
T2 sequence (looked up): T1 sequence (looked up)
Description: IFA: Cells were grown on coverslips until 75% confluent and placed in 6 well plates. The cells were washed with PBS followed by fixing with acetone. Cells were washed again with PBS followed by incubation with TBS then blocked with PBS containing 5% skim milk. […] Both antibodies were prepared in PBS containing 1% skim milk followed. Washing with PBS was performed between the primary and secondary antibody incubations. After secondary incubation, cells were washed with PBS containing DAPI and visualised for green fluorescence (MIL-38 positive).
A slide with no primary antibody was used as a negative control.

[3] = target: T1, recombinant human GPC-1 produced from …; test: sandwich ELISA, antibody coated as capture, biotinylated AM-4 as detection (FIG. 6A)
Description: Plates were blocked with PBS-Tween (0.1.%) containing 5% skim milk at 37° C. and washed. Antigen (recombinant human GPC-1 produced from NS0 cells) diluted in Buffer II (20 mM HEPES pH 7.5, 0.5 mM EDTA, 0.5% Triton X-100) with the addition of 150 mM NaCl and incubated overnight at 37° C. […] Absorbance was read 450 nm.

[4] = target: T2, MIL-38 antigen (GPC-1) as present in …; test: Western blot on DU-145 and C3 extracts (FIG. 2B)

binding result [1]: binds
binding result [2]: binds
B1: Chimeric MIL-38 antibody (Mouse VH-Human CH1-CH3 / Mouse VK-Human CK) (antibody, human IgG1, kappa)
heavy: not shown
light: DIQMTQSPASLSASVGETVTITCRASGNVHNYLAWYQQKQGKSPQLLVYTAKTLADGVPSRFSGSGSGTQYSLKINSLQPEDFGTYYCQHFWSNPWTFGGGTKLEIKRTVAAPSVFIFPPSDEQLKSGTASVVCLLNNFYPREAKVQWKVDNALQSGNSQESVTEQDSKDSTYSLSSTLTLSKADYEKHKVYACEVTHQGLSSPVTKSFNRGEC
notes: Expressed transiently in CHO-3E7 cells and purified on Protein A; also called MIL-38 chimeric antibody

binding result [3]: binds
binding result [4]: binds
B2: AM-4 MIL-38 antibody (AusMAb 4) (antibody, mouse IgG1, kappa)
heavy: QIQLVQSGPELKKPGETVKISCKASGYAFTDYSMNWVKQAPGKGLRWMGWINTETGEPTYTDDFKGRFAFSLETSASTAFLQINNLRNEDTATYFCARHYDYGGFPYWGQGTLVTVSAAKTTPPSVYPLAPGSAAQTNSMVTLGCLVKGYFPEPVTVTWNSGSLSSGVHTFPAVLQSDLYTLSSSVTVPSSTWPSETVTCNVAHPASSTKVDKKIVPRDCGCKPCICTVPEVSSVFIFPPKPKDVLTITLTPKVTCVVVDISKDDPEVQFSWFVDDVEVHTAQTQPREEQFNSTFRSVSELPIMHQDWLNGKEFKCRVNSAAFPAPIEKTISKTKGRPKAPQVYTIPPPKEQMAKDKVSLTCMITDFFPEDITVEWQWNGQPAENYKNTQPIMDTDGSYFVYSKLNVQKSNWEAGNTFTCSVLHEGLHNHHTEKSLSHSPGK
light: DIQMTQSPASLSASVGETVTITCRASGNVHNYLAWYQQKQGKSPQLLVYTAKTLADGVPSRFSGSGSGTQYSLKINSLQPEDFGTYYCQHFWSNPWTFGGGTKLEIKRADAAPTVSIFPPSSEQLTSGGASVVCFLNNFYPKDINVKWKIDGSERQNGVLNSWTDQDSKDSTYSMSSTLTLTKDEYERHNSYTCEATHKTSTSPIVKSFNRNEC
notes: Monoclonal mouse IgG1 kappa; Biotinylated AM-4 was also the detection antibody in the sandwich ELISA; also called monoclonal AM-4 MIL-38
